Source: article PMC3520155

Target: HA-tagged full-length pebble (Pbl) (Drosophila)
Assay: co-IP

| Substance | percent reduction in binding against wild-type ICD |
| --- | --- |
| Sema-1a ICD[36G/52A] (domain or fragment) | 33% |
| Sema-1a ICD[Δ31–60] (domain or fragment) | 44% |
